Reference: patent US9493781B2, “Synthetic brassica-derived chloroplast transit peptides” (DOW AGROSCIENCES LLC, priority 2012, dated 2016)

How the values were obtained:
Arabidopsis [1] = assay: Heritability progeny test of T1 families (T2 plants) with glufosinate, Arabidopsis; format: in vivo, Arabidopsis thaliana; conditions: progeny test of 100 T2 plants, glufosinate 200 g ae/ha
Description: Heritability. Confirmed transgenic T1 Arabidopsis events were self-pollinated to produce T2 seed. These seed were progeny tested by applying Ignite™ herbicide containing glufosinate (200 g ae/ha) to 100 random T2 siblings. […] The T1 families (T2 plants) segregated in the anticipated 3 Resistant: 1 Sensitive model for a dominantly inherited single locus with Mendelian inheritance as determined by Chi square analysis (P>0.05). […] Seed were collected from 5 to 15 T2 individuals (T3 seed). Twenty-five T3 siblings from each of 3-4 randomly-selected T2 families were progeny tested as previously described.

Arabidopsis [2] = assay: dgt-28, dgt-32, dgt-33, dgt-3, dgt-7 transformed Arabidopsis (T1, T2, T3) response to postemergence glyphosate, % visual injury; format: in vivo, Arabidopsis thaliana; conditions: 14 days after application
In short: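 Transgenic T1, T2 and T3 Arabidopsis (low-copy events for T2/T3, hemizygous and homozygous in T2) sprayed postemergence with glyphosate at 105, 420, 1,680 or 3,360 g ae/ha. Visual injury scored 2 weeks after treatment as mean, SD and range. Non-transformed Columbia served as sensitive control.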

[3] = Table 8, T1 Arabidopsis, 105 g ae/ha glyphosate
[4] = Table 8, T1 Arabidopsis, 420 g ae/ha glyphosate
[5] = Table 8, T1 Arabidopsis, 1680 g ae/ha glyphosate
[6] = Table 8, T1 Arabidopsis, 3360 g ae/ha glyphosate
[7] = Table 10, T1 Arabidopsis, 1,680 g ae/ha glyphosate
[8] = Table 12, T2 Arabidopsis, 1 copy, 420 g ae/ha glyphosate
[9] = Table 12, T2 Arabidopsis, 1 copy, 840 g ae/ha glyphosate
[10] = Table 12, T2 Arabidopsis, 1 copy, 1680 g ae/ha glyphosate
[11] = Table 12, T2 Arabidopsis, 1 copy, 3360 g ae/ha glyphosate

B1: pDAB105532: TraP9 v2 -- dgt-28 v5: binary construct TraP9 v2: dgt-28 v5 (SEQ ID NO:35) (nucleic acid)
DNA: ATGGCACAAGCCAGCCGTATCTGCCAGAATCCATGTGTGATATCCAATCTCCCCAAAAGCAACCACCGTAAGTCCCCTTTCTCTGTCTCACTCAAGACGCATCAGCCTAGAGCCTCTTCATGGGGACTTAAGAAGTCTGGCACCATGCTGAACGGTTCAGTGATTAGACCCGTCAAGGTGACAGCTTCTGTTTCCGCAGCAAGAGGGATGCCAGCCTTGTCTTTACCTGGATCAAAGAGTATCACAGCTAGGGCACTCTTTCTTGCTGCTGCTGCTGATGGGGTTACTACTTTGGTGAGGCCATTGAGAAGTGACGACACAGAAGGATTCGCTGAGGGGTTAGTTCGTTTAGGCTATCGTGTAGGGAGGACACCCGATACTTGGCAAGTCGATGGCAGACCACAAGGACCAGCAGTGGCTGAGGCTGACGTCTACTGTAGAGACGGAGCAACCACCGCTAGATTCTTGCCAACCTTAGCAGCTGCTGGTCACGGAACATACAGATTTGATGCTTCACCACAGATGAGGAGACGTCCTCTTTTGCCCTTAAGCAGAGCCTTGAGGGATTTGGGTGTCGATCTTAGACACGAAGAAGCTGAAGGTCATCACCCTCTGACTGTCCGTGCTGCTGGGGTTGAAGGAGGAGAGGTTACTTTGGATGCTGGTCAGTCAAGTCAGTATCTCACTGCCTTGTTGCTCCTTGGTCCCCTTACAAGACAAGGACTGAGGATAAGGGTTACTGATTTGGTGTCAGCACCATACGTGGAGATTACGCTTGCAATGATGAGGGCTTTCGGAGTTGAAGTGGCAAGGGAGGGAGATGTGTTCGTTGTTCCACCTGGTGGATATCGTGCAACTACGTATGCTATAGAACCCGACGCAAGTACTGCTTCTTACTTCTTCGCAGCTGCTGCTTTGACTCCTGGAGCTGAAGTGACTGTACCTGGGTTAGGCACGGGAGCACTTCAAGGAGATTTGGGATTTGTAGATGTCTTAAGGAGAATGGGAGCCGAGGTGTCCGTAGGAGCTGATGCAACCACTGTTAGAGGAACTGGTGAATTGCGTGGCCTTACAGCCAACATGAGAGACATAAGTGATACGATGCCGACCCTCGCTGCAATAGCACCCTTTGCTAGTGCTCCAGTTAGAATCGAGGATGTTGCCAACACTCGTGTCAAAGAATGTGACAGACTTGAGGCTTGTGCAGAGAACCTTAGGAGGTTGGGAGTAAGGGTTGCAACGGGTCCGGACTGGATTGAGATACACCCTGGTCCAGCTACTGGTGCTCAAGTCACAAGCTATGGTGATCACAGAATTGTGATGTCATTTGCAGTGACTGGACTTCGTGTGCCTGGGATCAGCTTCGACGACCCTGGCTGTGTTCGTAAGACTTTTCCTGGGTTTCACGAGGCTTTCGCAGAATTGAGGCGTGGCATTGGGAGCTGA
modifications: In-frame fusion of dgt-28 v5 and TraP9 v2
T1 Families Tested Segregating at 1 Locus (%) (Arabidopsis [1]): 100%
% Injury Ave (Arabidopsis [2]; [3]): 17.5%
% Injury Range (%) (Arabidopsis [2]; [3]): 0-60%
No. plants with 20-40% injury (Arabidopsis [2]; [3]): 0
No. plants with <20% injury (Arabidopsis [2]; [3]): 3
No. plants with >40% injury (Arabidopsis [2]; [3]): 1
% Injury Ave (Arabidopsis [2]; [4]): 39.5%
% Injury Range (%) (Arabidopsis [2]; [4]): 18-70%
No. plants with 20-40% injury (Arabidopsis [2]; [4]): 1
No. plants with <20% injury (Arabidopsis [2]; [4]): 1
No. plants with >40% injury (Arabidopsis [2]; [4]): 2
% Injury Ave (Arabidopsis [2]; [5]): 26.3%
% Injury Range (%) (Arabidopsis [2]; [5]): 5-80%
No. plants with 20-40% injury (Arabidopsis [2]; [5]): 0
No. plants with <20% injury (Arabidopsis [2]; [5]): 3
No. plants with >40% injury (Arabidopsis [2]; [5]): 1
% Injury Ave (Arabidopsis [2]; [6]): 25.8%
% Injury Range (%) (Arabidopsis [2]; [6]): 8-75%
No. plants with 20-40% injury (Arabidopsis [2]; [6]): 0
No. plants with <20% injury (Arabidopsis [2]; [6]): 3
No. plants with >40% injury (Arabidopsis [2]; [6]): 1
% Injury Ave (Arabidopsis [2]; [7]): 26.3%
% Injury Range (%) (Arabidopsis [2]; [7]): 5-80%
No. plants with 20-40% injury (Arabidopsis [2]; [7]): 0
No. plants with <20% injury (Arabidopsis [2]; [7]): 3
No. plants with >40% injury (Arabidopsis [2]; [7]): 1
% Injury Ave (Arabidopsis [2]; [8]): 2.0%
% Injury Range (%) (Arabidopsis [2]; [8]): 0-8%
No. plants with 20-40% injury (Arabidopsis [2]; [8]): 0
No. plants with <20% injury (Arabidopsis [2]; [8]): 4
No. plants with >40% injury (Arabidopsis [2]; [8]): 0
% Injury Ave (Arabidopsis [2]; [9]): 9.0%
% Injury Range (%) (Arabidopsis [2]; [9]): 8-12%
No. plants with 20-40% injury (Arabidopsis [2]; [9]): 0
No. plants with <20% injury (Arabidopsis [2]; [9]): 4
No. plants with >40% injury (Arabidopsis [2]; [9]): 0
% Injury Ave (Arabidopsis [2]; [10]): 7.3%
% Injury Range (%) (Arabidopsis [2]; [10]): 2-12%
No. plants with 20-40% injury (Arabidopsis [2]; [10]): 0
No. plants with <20% injury (Arabidopsis [2]; [10]): 4
No. plants with >40% injury (Arabidopsis [2]; [10]): 0
% Injury Ave (Arabidopsis [2]; [11]): 11.0%
% Injury Range (%) (Arabidopsis [2]; [11]): 10-12%
No. plants with 20-40% injury (Arabidopsis [2]; [11]): 0
No. plants with <20% injury (Arabidopsis [2]; [11]): 4
No. plants with >40% injury (Arabidopsis [2]; [11]): 0
